Laboratory results: IntAct's records for PubMed 20228790

Molecular target: PRKCB, P05771-1
Sequence (P05771 whole entry, looked up): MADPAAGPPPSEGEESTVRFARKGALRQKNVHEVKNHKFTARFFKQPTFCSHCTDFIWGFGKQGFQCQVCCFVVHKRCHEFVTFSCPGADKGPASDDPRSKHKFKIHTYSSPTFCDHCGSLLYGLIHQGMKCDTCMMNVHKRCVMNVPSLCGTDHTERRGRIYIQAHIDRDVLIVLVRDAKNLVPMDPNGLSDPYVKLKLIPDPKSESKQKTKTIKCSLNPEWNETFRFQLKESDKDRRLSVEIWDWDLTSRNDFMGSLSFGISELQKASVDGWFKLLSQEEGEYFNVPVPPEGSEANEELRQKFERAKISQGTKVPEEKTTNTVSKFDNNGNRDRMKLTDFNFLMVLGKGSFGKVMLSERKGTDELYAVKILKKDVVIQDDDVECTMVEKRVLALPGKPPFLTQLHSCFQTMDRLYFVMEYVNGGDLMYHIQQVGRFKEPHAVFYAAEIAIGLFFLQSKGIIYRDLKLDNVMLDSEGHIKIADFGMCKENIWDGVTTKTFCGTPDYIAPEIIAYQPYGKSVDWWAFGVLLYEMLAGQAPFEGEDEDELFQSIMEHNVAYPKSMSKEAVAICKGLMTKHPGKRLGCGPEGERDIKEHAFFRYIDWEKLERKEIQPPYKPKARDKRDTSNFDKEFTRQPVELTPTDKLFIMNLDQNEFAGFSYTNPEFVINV

Substance: Histone H3.1 (Homo sapiens) (from UniProt P68431) T7A
- effect of a mutation on the interaction: disrupting interaction
